# Results taken from patent US20240059758A1 (published 2024).
# Substitutions are numbered along the chain they refer to.
# B1: STE72-1B6 (antibody, V domains shown)
# VH: QVKLVQSGGGLVQPGGSLRLSCAASGFTFSSYAMSWVRQAPGKGLEWVSGISGSGGSTYYADSVKGRFTISRDNSKNTLYLQVNSLRAEDTAVYYCAKAPYGDFRGLWYFDYWGQGTLVTVSS
# VL: DIVMTQSPFSVSASVGDRVTISCRASQDIRSWLAWYQQKPGKAPQLLIYDASSLQSGVPSRFSGSGSGTDFTLTISSLQPEDFATYYCQQADSVPLTFGGGTKVEIQ
# B2: STE72-8A2 (antibody, V domains shown)
# VH: QVQLVQSGAEVKKPGASVKVSCKASGYTFTSYGISWVRQAPGQGLEWMGWISAYNGNTNYAQKLQGRVTMTTDTSTSTAYMELRSLRSDDTAVYYCARFFYDSSGYSTDYWGQGTLVTVSS
# VL: not shown
# B3: STE72-2G4 (antibody, V domains shown)
# VH: B2 VH
# VL: ETTLTQSPAFMSVTPGDRAILSCRASQSVDSHLAWYHQKPGQPPRLLIYGASTRATGIPARFSGSRSGTEFTLTISGLQSEDLGVYYCQQYASWPPGYNFGQGTKLEIK
# B4: STE72-8A6 (antibody, V domains shown)
# VH: B2 VH
# VL: DIVMTQSPSTLSASVGDRVTISCRASQNIGTWLAWYQQKPGKAPKLLISKASSLESGVPSRFSGSGSGTDFTLTISSLQPDDFATYYCQQYDSYLFTFGQGTKLEIR
# B5: STE70-1E12 (antibody, V domains shown)
# VH: QMQLVQSGAEVKKPGASVKVSCKASGYTFTGYYMHWVRQAPGQGLEWMGRINPNSGGTNYAQKFQGRVTMTRDTSTSTAYMELSRLRSDDTAVYYCVRDGYNFNNWFDPWGQGTLVTVSS
# VL: NFMLTQPHSVSGSPGETITISCTGSGGSIASNYVQWYRQRPGSAPTIVIYEDTQRPSGVPDRFSGSIDSSSNSASLTISGLKTEDEADYYCQSSESTNHVMFGGGSKLTVL
# B6: STE72-4E12 (antibody, V domains shown)
# VH: QVQLVQSGAEVKKPGASVKVSCKASGYTFTSYYMHWVRQAPGQGLEWMGIINPSGGSTSYAQKFQGRVTMTRDTSTSTVYMELSSLRSEDTAVYYCARDLSGGLDYWGQGTLVTVSS
# VL: ETTLTQSPATLSVSPGERVTLACRAGQTISSKLAWYRQKPGQAPSLLIYDASTRATGVPARFSGSGSGTEFTLTISSLQSEDFAVYYCQQYSDWPPTFGQGTKVEIK
# B7: STE73-2B2 (antibody, V domains shown)
# VH: QVQLVQSGAEVKKPGASVKVSCKASGYTFTGYYMHWVRQAPGQGLEWMGWINPNSGGTNYAQKFQGRVTITRDTSASTAYMELSSLRSEDTAVYYCARVSGWYFGAFDIWGQGTMVTVSS
# VL: LPVLTQPHSLSESPGKTVNISCTGSSGSIASNYVQWYQQRPGSAPTTVIYEDSHRPSGVPDRFSGSIDSSSNSASLSISGLKTEDEADYYCQSYDSSNNQWVFGGGTKLTVL
# B8: STE73-6B10 (antibody, V domains shown)
# VH: QVQLVQSGAEVKKPGASVKVSCKASGYTFTSYGISWVRQAPGQGLEWMGWINPNSGGTNYAQKFQGRVTMTRDTSISTAYMELSRLRSDDTAVYYCARDRLRYGDSGSYYYYGMDVWGQGTTVTVSS
# VL: QSALTQPRSVSGSPGQSVTISCTGTSSDVGGYNYVSWYQQHPGKAPKLLISEVTRRPSGVPDRFSGSKSGNTASLTVSGLQTEDEADYYCGSYAGSNTWVFGGGTKLTVL
# B9: STE73-2C2 (antibody, V domains shown)
# VH: QVQLVESGGGLVQPGGSLRLSCAASGITVSSNYMSWVRQAPGKGLEWVSVIYSGGSTFYADSVKGRFTISRDNSKNTLYLQMNSLRAEDTGVYYCARGHDNLDYWGQGTLVTVSS
# VL: LPVLTQPHSVSESPGKTVIISCTGSSDSIASNYVQWYQQRPGSAPTTVIYEDNKRPSGVPDRFSGSTDSSSNSASLTISGLKTEDEAEYYCQSYDSNNHWVFGGGTKLTVL
# B10: STE73-2G8 (antibody, V domains shown)
# VH: QVQLVQSGGGLVKPGGSLRLSCAASGITVSSNYMSWVRQAPGKGLEWVSILYSGGTTFYTDSVKGRFTISRDNSKNTLHLQMNSLRAEDTAVYYCARWSGTYYDYWGQGTLVTVSS
# VL: SSELTQDPAVSVALGQTVRITCQGDSLRSYYASWYQQKPGQAPVLVIYGKNNRPSGIPDRFSGSSSGNTASLTITGAQAEDEADYYCNSRDSTNDPVLFGAGTKLTVL
# B11: STE73-2E9 (antibody, V domains shown)
# VH: QVQLVQSGAEVKKPGASVKVSCKASGYTFTSYGISWVRQAPGQGLEWMGWISAYNGNTNYAQKLQGRVTMTTDTSTSTAYMELRSLRSDDTAVYYCARGKFDYWGQGTLVTVSS
# VL: QSVLTQPPSVSEAPSQRVTISCSGSSSNIGNNAVNWYQQLPGKAPKLLIYYDDVLPSGVSDRFSGSKSGTSASLAISGLQSGDEADYYCAAWDDSLSGVVFGGGTKLTVL
# B12: STE73-6C1 (antibody, V domains shown)
# VH: QVQLVQSGGGVVQPGRSLRLSCAASGFTFSSYAMHWVRQAPGKGLEWVAVISYDGSNKYYADSVKGRFTISRDNSKNTLYLQMNSLRAEDTAVYYCARSYVGGMDVWGQGTTVTVSS
# VL: QLVLTQSPSVSGAPGQSVTISCTGTDSNIGAGYNVHWYQQLPGAAPKLIISYTDNRPSGVPDRFSGSKSGTSASLAITGLQAEDEADYYCQSSDRTLVGSLFGTGTKVTVL
# B13: STE73-9G3 (antibody, V domains shown)
# VH: QVQLQESGGGLVQPGGSLRLSCAASGFTFSSYAMSWVRQAPGKGLEWVSAISGSGGSTYYADSVKGRFTISRDNSKNTLYLQMNSLRAEDTAVYYCARDLVLGSGSSNDWGRGTLVTVSS
# VL: B12 VL with L2P, S7P
# Biological target: T1, S1-mFc (UniProt P0DTC2 14-694)
# Assay: ELISA
row,Binder,EC50
1,B1,2.2 nM
2,B2,2.3 nM
3,B3,0.9 nM
4,B4,2.9 nM
5,B5,1.5 nM
6,B6,10.4 nM

# Biological target: S1- (UniProt P0DTC2 14-1210)
# Assay: ELISA
row,Binder,EC50
1,B6,11.6 nM

# Biological target: T2, RBD-mFc (UniProt P0DTC2 319-591)
# Assay: ELISA
row,Binder,EC50
1,B1,1.6 nM
2,B2,1.5 nM
3,B3,0.7 nM
4,B4,1.5 nM
5,B5,1.1 nM
6,B6,4.7 nM

# Biological target: T3, receptor binding domain (RBD) of the S1-subunit of SARS-CoV-2 glycoprotein S (UniProt P0DTC2 319-541)
# Assay: flow
row,Binder,IC50
1,B7,1.7 nM
2,B8,73 nM
3,B9,3 nM
4,B10,2.8 nM
5,B11,3.4 nM
6,B12,4.1 nM
7,B13,3.4 nM

# Biological target: T3, receptor binding domain (RBD) of the …
# Assay: flow
# Remark: another data set of the same source
row,Binder,IC50
1,B1,4.8 nM
2,B2,1.5 nM
3,B3,3.7 nM
4,B4,2.8 nM
5,B5,3.2 nM
6,B6,3 nM

# Biological target: T1, S1-mFc
# Assay: ELISA
# Remark: another data set of the same source
row,Binder,EC50
1,B7,0.8 nM
2,B8,15.3 nM
3,B9,17.9 nM
4,B10,1 nM
5,B11,0.6 nM
6,B12,2.8 nM
7,B13,1.6 nM

# Biological target: T2, RBD-mFc
# Assay: ELISA
# Remark: another data set of the same source
row,Binder,EC50
1,B7,0.5 nM
2,B8,17.3 nM
3,B9,9.6 nM
4,B10,0.7 nM
5,B11,0.7 nM
6,B12,2 nM
7,B13,1.4 nM
